Molecular target: spop_human SPOP (UniProt O43791)
Sequence (O43791 whole entry): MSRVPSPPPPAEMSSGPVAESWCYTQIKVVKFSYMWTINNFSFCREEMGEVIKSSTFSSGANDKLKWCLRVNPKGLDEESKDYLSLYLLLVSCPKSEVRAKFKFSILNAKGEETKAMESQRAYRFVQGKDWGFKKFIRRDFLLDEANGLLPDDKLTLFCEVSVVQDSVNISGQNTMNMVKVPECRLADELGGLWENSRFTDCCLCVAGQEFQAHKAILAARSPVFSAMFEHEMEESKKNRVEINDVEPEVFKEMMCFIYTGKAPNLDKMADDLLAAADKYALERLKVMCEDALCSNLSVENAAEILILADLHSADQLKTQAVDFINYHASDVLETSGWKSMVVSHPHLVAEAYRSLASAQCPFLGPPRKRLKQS

Row | effect of a mutation on the interaction | Substance
1 | disrupting interaction | Nuclear receptor coactivator 3 (Homo sapiens), Q9Y6Q9 S102A
2 | disrupting interaction | Nuclear receptor coactivator 3 (Homo sapiens), Q9Y6Q9 S101A;S102A
